Test results from US20210347873A1 (SHANGHAI PHARMAEXPLORER, published 2021).

T1: human APRIL protein (human, UniProt O75888 105-250, limits assumed)
T1 construct: Bought protein; also called recombinant APRIL protein
T1 sequence (looked up): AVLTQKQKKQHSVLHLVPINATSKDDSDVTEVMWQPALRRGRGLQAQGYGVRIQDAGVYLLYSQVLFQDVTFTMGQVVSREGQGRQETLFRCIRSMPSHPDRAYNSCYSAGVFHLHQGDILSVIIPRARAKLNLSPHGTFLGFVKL

T2: cynomolgus BLyS (full length, arginine to histidine at position 132) on CHO-K1 cells (cynomolgus, UniProt Q9Y275 1-285 (human entry))
T2 construct: also called cyno BLyS; CHO-K1 cynoBLyS
T2 chain: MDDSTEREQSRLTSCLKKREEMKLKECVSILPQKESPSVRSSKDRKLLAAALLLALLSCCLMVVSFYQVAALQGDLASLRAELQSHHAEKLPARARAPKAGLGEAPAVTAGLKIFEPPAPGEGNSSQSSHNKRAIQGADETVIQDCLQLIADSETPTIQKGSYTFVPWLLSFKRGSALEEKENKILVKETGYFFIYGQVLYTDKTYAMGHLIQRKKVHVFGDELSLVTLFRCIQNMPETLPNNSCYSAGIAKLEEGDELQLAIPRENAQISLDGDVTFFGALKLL


Assays:
[1] = biological target: T1, human APRIL protein; experiment: ELISA, coated APRIL; antibody 0.0213 nM
Outline: (§1)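 Anti-BLyS antibodies were tested for cross-reactivity on human APRIL coated at 1.0 μg/mL in PBS overnight at 4 °C, blocked with PBS/0.05% Tween20/1% BSA at 37 °C for 2 h. Antibodies were incubated 1 h at 37 °C, then HRP secondary 1 h at 37 °C; TMB 5 min at RT, HCl stop, A450 read.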

[2] = biological target: T1, human APRIL protein; experiment: ELISA, coated APRIL; antibody 0 nM (blank)
Outline: as §1

[3] = biological target: T1, human APRIL protein; experiment: ELISA, coated APRIL; antibody 0.534 nM
Outline: as §1

[4] = biological target: T1, human APRIL protein; experiment: ELISA, coated APRIL; antibody 0.00427 nM
Outline: as §1

[5] = biological target: T1, human APRIL protein; experiment: ELISA, coated APRIL; antibody 2.67 nM
Outline: as §1

[6] = biological target: T1, human APRIL protein; experiment: ELISA, coated APRIL; antibody 66.7 nM
Outline: as §1

[7] = biological target: T1, human APRIL protein; experiment: ELISA, coated APRIL; antibody 0.107 nM
Outline: as §1

[8] = biological target: T2, cynomolgus BLyS (full length, arginine …); experiment: flow cytometry, CHO-K1 cynoBLyS cells, antibody 0 nM
Experimental: (§2) The medium was aspirated completely, and the cells were rinsed once with PBS buffer (purchased from Invitrogen) and then treated with cell dispersion solution (TrypLE™ Express Enzyme, purchased from Life technology) and collected. The detailed steps are as follows: the cells were rinsed once with PBS buffer, after counting, the cells were diluted to 2×10⁶ cells/ml with PBS buffer, blocked with 2% (w/w) fetal bovine serum and incubated on ice for 30 minutes. 200 μL of which per well was aliquoted into a 96-well FACS plate and centrifuged at 2000 rpm at 4° C., then each 100 μL of the lead antibodies obtained from Embodiment 1 and 2 were aliquoted into each well and incubated on ice for 1 hour. […] After centrifuged and rinsed 3 times with FACS buffer, cells were suspended with 200 μL of FACS buffer and the results were detected and analyzed by FACS (FACS Calibur, purchased from BD). It was shown in Tables 12-13 that the lead antibody could bind to human BLyS protein on the cell surface and the lead antibody could cross-react with cynomolgus BLyS. The data in the table is MFI, the average fluorescence intensity of the cell population.

[9] = biological target: T2, cynomolgus BLyS (full length, arginine …); experiment: flow cytometry, CHO-K1 cynoBLyS cells, antibody 0.00427 nM
Experimental: as §2

[10] = biological target: T2, cynomolgus BLyS (full length, arginine …); experiment: flow cytometry, CHO-K1 cynoBLyS cells, antibody 0.107 nM
Experimental: as §2

[11] = biological target: T2, cynomolgus BLyS (full length, arginine …); experiment: flow cytometry, CHO-K1 cynoBLyS cells, antibody 66.7 nM
Experimental: as §2

[12] = biological target: T2, cynomolgus BLyS (full length, arginine …); experiment: flow cytometry, CHO-K1 cynoBLyS cells, antibody 2.67 nM
Experimental: as §2

[13] = biological target: T2, cynomolgus BLyS (full length, arginine …); experiment: flow cytometry, CHO-K1 cynoBLyS cells, antibody 0.534 nM
Experimental: as §2

Molecule | OD450 nm [1] | OD450 nm [2] | OD450 nm [3] | OD450 nm [4] | OD450 nm [5] | OD450 nm [6] | OD450 nm [7] | MFI [8] [MFI] | MFI [9] [MFI] | MFI [10] [MFI] | MFI [11] [MFI] | MFI [12] [MFI] | MFI [13] [MFI]
mIgG Control (antibody) | 0.0537 | 0.0716 | 0.0536 | 0.0587 | 0.0558 | 0.102 | 0.0533 | – | – | – | – | – | –
hIgG Control (antibody) | 0.0804 | 0.0711 | 0.0793 | 0.0693 | 0.128 | 0.477 | 0.0722 | – | – | – | – | – | –
8E7D9C7F5 (antibody, V domains shown, Mouse hybridoma monoclonal antibody purified on Protein G) VH: QVQLQQSGVELARPGASVKLSCKASGYTFTSYGISWVKQRTGQALEWIGEIYPRSGNTYYNEKFKGKATLTADKSSSTAYMELRSLTSEDSAVYFCARSGPITTLVATDYGMDYWGQGTSVTVSS VL: DIVLTQSPASLAVSLGQRATISCRASKSVSTSSYSYMHWYQQKPGQPPKLLIKFASNLESGVPARFSGSGSGTDFTLNIHPVEEEDAATYYCQHSREFPYTFGGGTKLEIK | – | – | – | – | – | – | – | 19.8 | 74.4 | 477 | 1170 | 1130 | 1050
2-1G11 (antibody, V domains shown, From a human naive scFv phage library; also called human BLyS antibody 2-1G11) VH: EVQLVESRGGVVQPGRSLRLSCAASGFTFSSYGMHWVRQAPGKGLEWVAVISYDGSNKYYADSVKGRFTISRDNSKNTLYLQMNSLRAEDAAVYYCARDRVDILTGYSIYGMDVWGQGTTVTVSS VL: EIVMTQSPATLSLSPGERATLSCRASQSVSSYLAWYQQKPGQAPRLLIYDASKRATGIPARFSGSGSGTDFTLTISSLEPEDFAVYYCQQRSNWPLTFGGGTKVEIK | – | – | – | – | – | – | – | 21.2 | 176 | 816 | 1460 | 1480 | 1400
L9G7 (antibody, human IgG1, V domains shown) VH: QIQLVQSGAEVKKPGASVKVSCKASGYTFTSYGISWVRQAPGQGLEWMGWISAYNGNTNYAQKLQGRVTMTTDTSTSTAYMELRSLRSDDTAVYYCARTYYDILTGYYYYGMDVWGQGTTVTVSS VL: EIVLTQSPGTLSLSPGERATLSCRTSQSVDTYLAWYQQKPGQAPRLLIYDASNRATGIPARFSGSGSGTDFTLTISSLEPEDFAVYYCQQRSNWPLTFGGGTKVEIK | 0.0777 | 0.0638 | 0.0741 | 0.161 | 0.0751 | 0.276 | 0.0861 | – | – | – | – | – | –
L9G7 (antibody, V domains shown, From a human naive scFv phage library; also called human BLyS antibody L9G7) VH: QIQLVQSGAEVKKPGASVKVSCKASGYTFTSYGISWVRQAPGQGLEWMGWISAYNGNTNYAQKLQGRVTMTTDTSTSTAYMELRSLRSDDTAVYYCARTYYDILTGYYYYGMDVWGQGTTVTVSS VL: EIVLTQSPGTLSLSPGERATLSCRTSQSVDTYLAWYQQKPGQAPRLLIYDASNRATGIPARFSGSGSGTDFTLTISSLEPEDFAVYYCQQRSNWPLTFGGGTKVEIK | – | – | – | – | – | – | – | 20.6 | 63.5 | 387 | 1340 | 1280 | 1010
97A3C2H4 (antibody, V domains shown, Mouse hybridoma monoclonal antibody purified on Protein G) VH: EVKLVESGGGLVQPGGSLKLSCAASGFTFSTYTMSWVRQTPEKRLEWVAYISYGGGSTSYPDTVKGRFTISRDNAKNTLYLQMSSLKSEDTAIYYCTRHVTVVENSMDYWGQGTSVTVSS VL: DILLTQSPDILSVSPGERVSFSCRASQSIGTSIHWYQQRTNGSPRLLIKYVSESFSGTPSRFSGSGSGTAFTLTINSVESEDIADYYCQQTHSWPWTFGGGTKLEIK | – | – | – | – | – | – | – | 20 | 44.3 | 243 | 987 | 956 | 682
97A3C2H4 (antibody, V domains shown, Mouse hybridoma antibody purified on Protein G) VH: EVKLVESGGGLVQPGGSLKLSCAASGFTFSTYTMSWVRQTPEKRLEWVAYISYGGGSTSYPDTVKGRFTISRDNAKNTLYLQMSSLKSEDTAIYYCTRHVTVVENSMDYWGQGTSVTVSS VL: DILLTQSPDILSVSPGERVSFSCRASQSIGTSIHWYQQRTNGSPRLLIKYVSESFSGTPSRFSGSGSGTAFTLTINSVESEDIADYYCQQTHSWPWTFGGGTKLEIK | 0.0559 | 0.0566 | 0.059 | 0.0625 | 0.0617 | 0.173 | 0.0561 | – | – | – | – | – | –
L1D12 (antibody, V domains shown, From a human naive scFv phage library; also called human BLyS antibody L1D12; LID12) VH: QVQLVQSGGGLVQPGGSLRLSCAASGFTVSSNYMSWVRQAPGKGLEWVSVIYSGGSTYYADSVKGRFTISRDNSKNTLYLQMNSLRAEDTAVYYCARGFHDILTGYGMDVWGQGTTVTVSS VL: SSELTQDPAVSVALGQTVRITCQGDSLRNYYAGWYQQKPGQAPVLVIYGKNNRPSGIPDRFSGSSSGNTASLTITGTQAEDEADYYCSSRDNSGTHLVEFGGGTKLTVL | – | – | – | – | – | – | – | 21.2 | 66.7 | 364 | 1180 | 1170 | 900
L1D12 (antibody, human IgG1, V domains shown, also called LID12) VH: QVQLVQSGGGLVQPGGSLRLSCAASGFTVSSNYMSWVRQAPGKGLEWVSVIYSGGSTYYADSVKGRFTISRDNSKNTLYLQMNSLRAEDTAVYYCARGFHDILTGYGMDVWGQGTTVTVSS VL: SSELTQDPAVSVALGQTVRITCQGDSLRNYYAGWYQQKPGQAPVLVIYGKNNRPSGIPDRFSGSSSGNTASLTITGTQAEDEADYYCSSRDNSGTHLVEFGGGTKLTVL | 0.0854 | 0.0625 | 0.0757 | 0.121 | 0.102 | 0.133 | 0.0678 | – | – | – | – | – | –
111D10D6G3 (antibody, V domains shown, Mouse hybridoma monoclonal antibody purified on Protein G) VH: QVQLQQPGAELVKPGASVKMSCKASGYTFTRHWITWVKQRPGQGLEWIGDIFPGSGSINYNEKFKSEATLTVEKSSSTAYMQLSSLTSEDSAVYYCARGDVDVWGTGTTVTVSS VL: DIQMTQSPSSLSASLGERVSLTCRASQEIRGYLSWLQQKPNGTIKRLIYAASTLDSGVPKRFSATRSGSDFSLTISSLESEDFADYYCLQYASYPFTFGSGTKLEIK | – | – | – | – | – | – | – | 20.4 | 38.8 | 222 | 539 | 510 | 478
111D10D6G3 (antibody, V domains shown, Mouse hybridoma antibody purified on Protein G) VH: QVQLQQPGAELVKPGASVKMSCKASGYTFTRHWITWVKQRPGQGLEWIGDIFPGSGSINYNEKFKSEATLTVEKSSSTAYMQLSSLTSEDSAVYYCARGDVDVWGTGTTVTVSS VL: DIQMTQSPSSLSASLGERVSLTCRASQEIRGYLSWLQQKPNGTIKRLIYAASTLDSGVPKRFSATRSGSDFSLTISSLESEDFADYYCLQYASYPFTFGSGTKLEIK | 0.0549 | 0.0547 | 0.0525 | 0.0538 | 0.0583 | 0.0681 | 0.0536 | – | – | – | – | – | –
